Results as given in patent US20260234262A1.

Biological target: Target 2 (canine examples 1 to 4) (canine)
Assay: SPR, Biacore T200; antibody captured on anti-canine coupled CM5 chip, antigen in solution, 1:1 fit

- Kd: 0.213 nM
- koff: 6.24e-05 s⁻¹
- kon: 293000 M⁻¹ s⁻¹
B1: 02F09R3-Fc (Fc fusion)
chain: QVQLVESGGGLVQAGGSLRLSCVASGSTFSNLVMAWYRQAPGKQREWVARISLAGNTIYADSVKGRFTISRDNAKNTVYLQMNSLKIEDTAVYYCSRGGVDWGQGTQVTVSSGPGGQVPKRENGRVPRPPDCPKCPAPEAAGGPSVFIFPPKPKDTLLIARTPEVTCVVVDLDPEDPEVQISWFVDGKQMQTAKTQPREEQFNGTYRVVSVLPIGHQDWLKGKQFTCKVNNKALPSPIERTISKARGQAHQPSVYVLPPSREELSKNTVSLTCLIKDFFPPDIDVEWQSNGQQEPESKYRTTPPQLDEDGSYFLYSKLSVDKSRWQRGDTFICYVMHEALHNHYTQESLSHSP
modifications: N-terminal pyroglutamate (PyroQ) observed by intact mass
